Data published in patent US20090099029.

B1: MAPK13(p38delta) (protein)
chain: MSLIRKKGFYKQDVNKTAWELPKTYVSPTHVGSGAYGSVCSAIDKRSGEKVAIKKLSRPFQSEIFAKRAYRELLLLKHMQHENVIGLLDVFTPASSLRNFYDFYLVMPFMQTDLQKIMGMEFSEEKIQYLVYQMLKGLKYIHSAGVVHRDLKPGNLAVNEDCELKILDFGLARHADAEMTGYVVTRWYRAPEVILSWMHYNQTVDIWSVGCIMAEMLTGKTLFKGKDYLDQLTQILKVTGVPGTEFVQKLNDKAAKSYIQSLPQTPRKDFTQLFPRASPQAADLLEKMLELDVDKRLTAAQALTHPFFEPFRDPEEETEAQQPFDDSLEHEKLTVDEWKQHIYKEIVNFSPIARKDSRRRSGMKL
B2: MAPK14(p38alpha) (protein)
chain: MSQERPTFYRQELNKTIWEVPERYQNLSPVGSGAYGSVCAAFDTKTGLRVAVKKLSRPFQSIIHAKRTYRELRLLKHMKHENVIGLLDVFTPARSLEEFNDVYLVTHLMGADLNNIVKCQKLTDDHVQFLIYQILRGLKYIHSADIIHRDLKPSNLAVNEDCELKILDFGLARHTDDEMTGYVATRWYRAPEIMLNWMHYNQTVDIWSVGCIMAELLTGRTLFPGTDHINQLQQIMRLTGTPPAYLINRMPSHEARNYIQSLTQMPKMNFANVFIGANPLAVDLLEKMLVLDSDKRITAAQALAHAYFAQYHDPDDEPVADPYDQSFESRDLLIDEWKSLTYDEVISFVPPPLDQEEMES
B3: MAPK3(ERK1) (protein)
chain: MAAAAAQGGGGGEPRRTEGVGPGVPGEVEMVKGQPFDVGPRYTQLQYIGEGAYGMVSSAYDHVRKTRVAIKKISPFEHQTYCQRTLREIQILLRFRHENVIGIRDILRASTLEAMRDVYIVQDLMETDLYKLLKSQQLSNDHICYFLYQILRGLKYIHSANVLHRDLKPSNLLINTTCDLKICDFGLARIADPEHDHTGFLTEYVATRWYRAPEIMLNSKGYTKSIDIWSVGCILAEMLSNRPIFPGKHYLDQLNHILGILGSPSQEDLNCIINMKARNYLQSLPSKTKVAWAKLFPKSDSKALDLLDRMLTFNPNKRITVEEALAHPYLEQYYDPTDEPVAEEPFTFAMELDDLPKERLKELIFQETARFQPGVLEAP
B4: MAPK8(JNK1) (protein)
chain: MSRSKRDNNFYSVEIGDSTFTVLKRYQNLKPIGSGAQGIVCAAYDAILERNVAIKKLSRPFQNQTHAKRAYRELVLMKCVNHKNIIGLLNVFTPQKSLEEFQDVYIVMELMDANLCQVIQMELDHERMSYLLYQMLCGIKHLHSAGIIHRDLKPSNIVVKSDCTLKILDFGLARTAGTSFMMTPYVVTRYYRAPEVILGMGYKENVDLWSVGCIMGEMVCHKILFPGRDYIDQWNKVIEQLGTPCPEFMKKLQPTVRTYVENRPKYAGYSFEKLFPDVLFPADSEHNKLKASQARDLLSKMLVIDASKRISVDEALQHPYINVWYDPSEAEAPPPKIPDKQLDEREHTIEEWKELIYKEVMDLEERTKNGVIRGQPSPLAQVQQ
B5: MAPKAPK3 (protein)
chain: MDGETAEEQGGPVPPPVAPGGPGLGGAPGGRREPKKYAVTDDYQLSKQVLGLGVNGKVLECFHRRTGQKCALKLLYDSPKARQEVDHHWQASGGPHIVCILDVYENMHHGKRCLLIIMECMEGGELFSRIQERGDQAFTEREAAEIMRDIGTAIQFLHSHNIAHRDVKPENLLYTSKEKDAVLKLTDFGFAKETTQNALQTPCYTPYYVAPEVLGPEKYDKSCDMWSLGVIMYILLCGFPPFYSNTGQAISPGMKRRIRLGQYGFPNPEWSEVSEDAKQLIRLLLKTDPTERLTITQFMNHPWINQSMVVPQTPLHTARVLQEDKDHWDEVKEEMTSALATMRVDYDQVKIKDLKTSNNRLLNKRRKKQAGSSSASQGCNNQ
B6: MAPKAPK5(PRAK) (protein)
chain: MSEESDMDKAIKETSILEEYSINWTQKLGAGISGPVRVCVKKSTQERFALKILLDRPKARNEVRLHMMCATHPNIVQIIEVFANSVQFPHESSPRARLLIVMEMMEGGELFHRISQHRHFTEKQASQVTKQIALALRHCHLLNIAHRDLKPENLLFKDNSLDAPVKLCDFGFAKIDQGDLMTPQFTPYYVAPQVLEAQRRHQKEKSGIIPTSPTPYTYNKSCDLWSLGVIIYVMLCGYPPFYSKHHSRTIPKDMRRKIMTGSFEFPEEEWSQISEMAKDVVRKLLKVKPEERLTIEGVLDHPWLNSTEALDNVLPSAQLMMDKAVVAGIQQAHAEQLANMRIQDLKVSLKPLHSVNNPILRKRKLLGTKPKDSVYIHDHENGAEDSNVALEKLRDVIAQCILPQAGENEDEKLNEVMQEAWKYNRECKLLRDTLQSFSWNGRGFTDKVDRLKLAEIVKQVIEEQTTSHESQ
B7: EPHA8 (protein)
chain: KKRHCGYSKAFQDSDEEKMHYQNGQAPPPVFLPLHHPPGKLPEPQFYAEPHTYEEPGRAGRSFTREIEASRIHIEKIIGSGDSGEVCYGRLRVPGQRDVPVAIKALKAGYTERQRRDFLSEASIMGQFDHPNIIRLEGVVTRGRLAMIVTEYMENGSLDTFLRTHDGQFTIMQLVGMLRGVGAGMRYLSDLGYVHRDLAARNVLVDSNLVCKVSDFGLSRVLEDDPDAAYTTTGGKIPIRWTAPEAIAFRTFSSASDVWSFGVVMWEVLAYGERPYWNMTNRDVISSVEEGYRLPAPMGCPHALHQLMLDCWHKDRAQRPRFSQIVSVLDALIRSPESLRATATVSRCPPPAFVRSCFDLRGGSGGGGGLTVGDWLDSIRMGRYRDHFAAGGYSSLGMVLRMNAQDVRALGITLMGHQKKILGSIQTMRAQLTSTQGPRRHL
B8: MINK1 (protein)
chain: MGDPAPARSLDDIDLSALRDPAGIFELVEVVGNGTYGQVYKGRHVKTGQLAAIKVMDVTEDEEEEIKQEINMLKKYSHHRNIATYYGAFIKKSPPGNDDQLWLVMEFCGAGSVTDLVKNTKGNALKEDCIAYICREILRGLAHLHAHKVIHRDIKGQNVLLTENAEVKLVDFGVSAQLDRTVGRRNTFIGTPYWMAPEVIACDENPDATYDYRSDIWSLGITAIEMAEGAPPLCDMHPMRALFLIPRNPPPRLKSKKWSKKFIDFIDTCLIKTYLSRPPTEQLLKFPFIRDQPTERQVRIQLKDHIDRSRKKRGEKEETE
B9: MYLK2 (protein)
chain: MATENGAVELGIQNPSTDKAPKGPTGERPLAAGKDPGPPDPKKAPDPPTLKKDAKAPASEKGDGTLAQPSTSSQGPKGEGDRGGGPAEGSAGPPAALPQQTATPETSVKKPKAEQGASGSQDPGKPRVGKKAAEGQAAARRGSPAFLHSPSCPAIISSSEKLLAKKPPSEASELTFEGVPMTHSPTDPRPAKAEEGKNILAESQKEVGEKTPGQAGQAKMQGDTSRGIEFQAVPSEKSEVGQALCLTAREEDCFQILDDCPPPPAPFPHRMVELRTGNVSSEFSMNSKEALGGGKFGAVCTCMEKATGLKLAAKVIKKQTPKDKEMVLLEIEVMNQLNHRNLIQLYAAIETPHEIVLFMEYIEGGELFERIVDEDYHLTEVDTMVFVRQICDGILFMHKMRVLHLDLKPENILCVNTTGHLVKIIDFGLARRYNPNEKLKVNFGTPEFLSPEVVNYDQISDKTDMWSMGVITYMLLSGLSPFLGDDDTETLNNVLSGNWYFDEETFEAVSDEAKDFVSNLIVKDQRARMNAAQCLAHPWLNNLAEKAKRCNRRLKSQILLKKYLMKRRWKKNFIAVSAANRFKKISSSGALMALGV
B10: NEK2 (protein)
chain: MPSRAEDYEVLYTIGTGSYGRCQKIRRKSDGKILVWKELDYGSMTEAEKQMLVSEVNLLRELKHPNIVRYYDRIIDRTNTTLYIVMEYCEGGDLASVITKGTKERQYLDEEFVLRVMTQLTLALKECHRRSDGGHTVLHRDLKPANVFLDGKQNVKLGDFGLARILNHDTSFAKTFVGTPYYMSPEQMNRMSYNEKSDIWSLGCLLYELCALMPPFTAFSQKELAGKIREGKFRRIPYRYSDELNEIITRMLNLKDYHRPSVEEILENPLIADLVADEQRRNLERRGRQLGEPEKSQDSSPVLSELKLKEIQLQERERALKAREERLEQKEQELCVRERLAEDKLARAENLLKNYSLLKERKFLSLASNPELLNLPSSVIKKKVHFSGESKENIMRSENSESQLTSKSKCKDLKKRLHAAQLRAQALSDIEKNYQLKSRQILGMR
B11: NEK3 (protein)
chain: MDDYMVLRMIGEGSFGRALLVQHESSNQMFAMKEIRLPKSFSNTQNSRKEAVLLAKMKHPNIVAFKESFEAEGHLYIVMEYCDGGDLMQKIKQQKGKLFPEDMILNWFTQMCLGVNHIHKKRVLHRDIKSKNIFLTQNGKVKLGDFGSARLLSNPMAFACTYVGTPYYVPPEIWENLPYNNKSDIWSLGCILYELCTLKHPFQANSWKNLILKVCQGCISPLPSHYSYELQFLVKQMFKRNPSHRPSATTLLSRGIVARLVQKCLPPEIIMEYGEEVLEEIKNSKHNTPRKKTNPSRIRIALGNEASTVQEEEQDRKGSHTDLESINENLVESALRRVNREEKGNKSVHLRKASSPNLHRRQWEKNVPNTALTALENASILTSSLTAEDDRGGSVIKYSKNTTRKQWLKETPDTLLNILKNADLSLAFQTYTIYRPGSEGFLKGPLSEETEASDSVDGGHDSVILDPERLEPGLDEEDTDFEEEDDNPDWVSELKKRAGWQGLCDR
B12: PAK1 (protein)
chain: MSNNGLDIQDKPPAPPMRNTSTMIGAGSKDAGTLNHGSKPLPPNPEEKKKKDRFYRSILPGDKTNKKKEKERPEISLPSDFEHTIHVGFDAVTGEFTGMPEQWARLLQTSNITKSEQKKNPQAVLDVLEFYNSKKTSNSQKYMSFTDKSAEDYNSSNALNVKAVSETPAVPPVSEDEDDDDDDATPPPVIAPRPEHTKSVYTRSVIEPLPVTPTRDVATSPISPTENNTTPPDALTRNTEKQKKKPKMSDEEILEKLRSIVSVGDPKKKYTRFEKIGQGASGTVYTAMDVATGQEVAIKQMNLQQQPKKELIINEILVMRENKNPNIVNYLDSYLVGDELWVVMEYLAGGSLTDVVTETCMDEGQIAAVCRECLQALEFLHSNQVIHRDIKSDNILLGMDGSVKLTDFGFCAQITPEQSKRSTMVGTPYWMAPEVVTRKAYGPKVDIWSLGIMAIEMIEGEPPYLNENPLRALYLIATNGTPELQNPEKLSAIFRDFLNRCLEMDVEKRGSAKELLQHQFLKIAKPLSSLTPLIAAAKEATKNNH

Molecular target: T1, Bovine, dephosphorylated, Myelin Basic Protein (MBP), P02687
T1 chain: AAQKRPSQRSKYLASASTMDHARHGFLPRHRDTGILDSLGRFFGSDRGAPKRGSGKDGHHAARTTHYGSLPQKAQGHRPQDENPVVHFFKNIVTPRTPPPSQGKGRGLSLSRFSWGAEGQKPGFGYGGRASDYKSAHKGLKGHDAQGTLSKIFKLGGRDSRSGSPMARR

Protein | MBP Kinase Activity
B1 | Weak
B2 | Strong
B3 | Strong
B4 | Negative
B5 | Strong
B6 | Strong
B7 | Weak
B8 | Weak
B9 | Negative
B10 | Strong
B11 | Negative
B12 | Negative
